± gives the uncertainty stated by the source.

A short description of this series: self-splicing fitness, log relative to wild type (ln ratio); higher = more splicing; Tetrahymena group I intron in knt gene, E. coli kanamycin selection, DiMSum; sequences stand for … in CUCUCU…GGAGGGAAAAGUUAUCAGGCAUGCACCUGGUAGCUAGUCUUUAAACCAAUAGAUUGCAUCGGUUUAAAAGGCAAGACCGUCAAAUUGCGGGAAAGGGGUCAACAGCCGUUCAGUACCAAGUCUCAGGGGAAACUUUGAGAUGGCCUUGCAAAGGGUAUGGUAAUAAGCUGACGGACAUGGUCCUAACCACGCAGCCAAGUCCUAAGUCAACAGAUCUUCUGUUGAUAUGGAUGCAGUUCACAGACUAAAUGUCGGUCGGGGAAGAUGUAUUCUUCUCAUAAGAUAUAGUCGGACCUCUCCUUAAUGGGAGCUAGCGGAUGAAGUGAUGCAACACUGGAGCCGCUGGGAACUAAUUUGUAUGCGAAAGUAUAUUGAUUAGUUUUGGAGUACUCGUGGUCG
The procedure, abridged: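 The eight P1ex-region nucleotides of an intron in the knt kanamycin-resistance gene on pET-22b(+) were all randomised and the library put into E. coli BL21(DE3). Six replicate transformations were grown overnight at 37°C or 30°C on LB agar with or without 25 μg/mL kanamycin, together with 100 μg/mL carbenicillin, 50 μM IPTG and 0.2% rhamnose. Colonies were pooled and amplicon-sequenced on an Illumina HiSeq 2500. Fitness from DiMSum is the error-weighted combination of wild-type-normalised replicate fold changes, kanamycin over none.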

On to AUAAAGCAAUAUUACGUAGU, for which the “self-splicing fitness (ln)” value was -1.9 ± 0.12 (30 °C) and -0.946 ± 0.17 (37 °C).
In the same order, the values of GCACAGCAAUAUUACGAUGC are -3.17 ± 0.2 and -1.88 ± 0.17.
Take UACGAGCAAUAUUACGCGUG: the “self-splicing fitness (ln)” value is, setting by setting: (30 °C) -4.43 ± 0.3; (37 °C) -2.7 ± 0.21.
For the sequence GCCAAGCAAUAUUACGACGG, the “self-splicing fitness (ln)” value was -3.8 ± 0.23 (30 °C) and -2.55 ± 0.21 (37 °C).
For CCCGAGCAAUAUUACGGACG, the “self-splicing fitness (ln)” value is, setting by setting: (30 °C) -3.62 ± 0.29; (37 °C) -0.706 ± 0.18.
In the same order, the values of CGUCAGCAAUAUUACGGCCC are -1.75 ± 0.17 and -0.728 ± 0.24.
With CGUGAGCAAUAUUACGAGUU, the “self-splicing fitness (ln)” value runs as follows: (30 °C) -3.88 ± 0.47; (37 °C) -3.72 ± 0.36.
For the sequence UUCUAGCAAUAUUACGAUUG, the “self-splicing fitness (ln)” value (30 °C) was -3.24 ± 0.31 and the “self-splicing fitness (ln)” value (37 °C) was -1.94 ± 0.21.
GAGCAGCAAUAUUACGACCU: the “self-splicing fitness (ln)” value by setting is: (30 °C) -1.22 ± 0.17; (37 °C) 0.00279 ± 0.23.
For the sequence CGAUAGCAAUAUUACGCCCC, the “self-splicing fitness (ln)” value is -1.99 ± 0.29 (30 °C) and -0.838 ± 0.29 (37 °C).
With UCGUAGCAAUAUUACGUGGU, the “self-splicing fitness (ln)” value is -3.45 ± 0.4 (30 °C) and -2.67 ± 0.48 (37 °C).
In the same order, the values of CUGAAGCAAUAUUACGAUUG are 0.168 ± 0.099 and -0.000234 ± 0.12.
As for GUCCAGCAAUAUUACGGUUC, the “self-splicing fitness (ln)” value reads like this: (30 °C) -0.386 ± 0.049; (37 °C) 0.219 ± 0.065.
In the same order, the values of GUGAAGCAAUAUUACGGUCA are -0.465 ± 0.11 and 0.46 ± 0.12.
Regarding GGACAGCAAUAUUACGCGUU, the “self-splicing fitness (ln)” value is -3.68 ± 0.16 (30 °C) and -2.62 ± 0.2 (37 °C).
In the same order, the values of GCGAAGCAAUAUUACGUCUA are -1.16 ± 0.1 and -1.3 ± 0.093.
Take AGGGAGCAAUAUUACGAGCG: the “self-splicing fitness (ln)” value was -2.94 ± 0.47 (30 °C) and -0.874 ± 0.43 (37 °C).
With GACGAGCAAUAUUACGGCAU, the “self-splicing fitness (ln)” value is -1.4 ± 0.14 (30 °C) and -0.955 ± 0.17 (37 °C).
For GUUGAGCAAUAUUACGUAGU, the “self-splicing fitness (ln)” value (30 °C) was -2.05 ± 0.15 and the “self-splicing fitness (ln)” value (37 °C) was -1.31 ± 0.18.
On to CAUCAGCAAUAUUACGAUUU, for which the “self-splicing fitness (ln)” value (30 °C) is -0.551 ± 0.071 and the “self-splicing fitness (ln)” value (37 °C) was found to be 0.205 ± 0.1.
In the same order, the values of AUGGAGCAAUAUUACGGGAG are -2.75 ± 0.18 and -2.82 ± 0.31.
In the same order, the values of CUCUAGCAAUAUUACGGGGC are -2.81 ± 0.27 and -2.64 ± 0.41.
In the same order, the values of GACUAGCAAUAUUACGUUUC are -2.3 ± 0.12 and -2.84 ± 0.18.
Take ACAAAGCAAUAUUACGCGUG: the “self-splicing fitness (ln)” value runs as follows: (30 °C) -1.5 ± 0.043; (37 °C) -0.274 ± 0.057.
In the same order, the values of GCGAAGCAAUAUUACGGGCG are -1.84 ± 0.11 and -0.509 ± 0.13.
UUACAGCAAUAUUACGGCUC: the “self-splicing fitness (ln)” value (30 °C) is -1.76 ± 0.16 and the “self-splicing fitness (ln)” value (37 °C) was -0.974 ± 0.16.
With UGCGAGCAAUAUUACGGUUG, the “self-splicing fitness (ln)” value by setting is: (30 °C) -1.51 ± 0.16; (37 °C) -1.82 ± 0.26.
In the case of CCACAGCAAUAUUACGCCUA, the “self-splicing fitness (ln)” value reads like this: (30 °C) -2.47 ± 0.28; (37 °C) -2.79 ± 0.34.
Consider AAGCAGCAAUAUUACGAGCG, for which the “self-splicing fitness (ln)” value is -1.12 ± 0.11 (30 °C) and -0.344 ± 0.14 (37 °C).
For the sequence UUCUAGCAAUAUUACGCUCU, the “self-splicing fitness (ln)” value (30 °C) is -1.9 ± 0.15 and the “self-splicing fitness (ln)” value (37 °C) was -1.77 ± 0.15.
Turning to CCGUAGCAAUAUUACGUAUA, the “self-splicing fitness (ln)” value was -2.74 ± 0.18 (30 °C) and -2.72 ± 0.27 (37 °C).
Regarding GACGAGCAAUAUUACGAGGG, the “self-splicing fitness (ln)” value (30 °C) is -3.12 ± 0.25 and the “self-splicing fitness (ln)” value (37 °C) was -2.97 ± 0.35.
In the same order, the values of CACGAGCAAUAUUACGGCAA are -3.69 ± 0.27 and -2.09 ± 0.14.
As to GGCGAGCAAUAUUACGUAAG, the “self-splicing fitness (ln)” value was -3.88 ± 0.38 (30 °C) and -1.39 ± 0.27 (37 °C).
Regarding AGGCAGCAAUAUUACGGGAU, the “self-splicing fitness (ln)” value is -2.85 ± 0.16 (30 °C) and -1.39 ± 0.14 (37 °C).
In the same order, the values of UAGGAGCAAUAUUACGACUA are -0.46 ± 0.13 and -1.53 ± 0.15.
With AUUAAGCAAUAUUACGACCC, the “self-splicing fitness (ln)” value (30 °C) was -1.2 ± 0.35.
Turning to UGUAAGCAAUAUUACGUAGC, the “self-splicing fitness (ln)” value (37 °C) is -1.96 ± 0.45.
Take UCGUAGCAAUAUUACGACUU: the “self-splicing fitness (ln)” value was -2.7 ± 0.22 (30 °C) and -0.781 ± 0.17 (37 °C).
In the case of UUGGAGCAAUAUUACGUAAA, the “self-splicing fitness (ln)” value was -2.9 ± 0.29 (30 °C) and -0.99 ± 0.25 (37 °C).
In the same order, the values of UAGUAGCAAUAUUACGUUGG are -3.52 ± 0.22 and -2.69 ± 0.16.
In the case of AGGAAGCAAUAUUACGCGCU, the “self-splicing fitness (ln)” value is -1.01 ± 0.13 (30 °C) and -0.788 ± 0.17 (37 °C).
GAACAGCAAUAUUACGGGAG: the “self-splicing fitness (ln)” value was -2.06 ± 0.086 (30 °C) and -1.47 ± 0.097 (37 °C).
Consider CAUUAGCAAUAUUACGAUCC, for which the “self-splicing fitness (ln)” value (37 °C) was 0.538 ± 0.22.
Still for that read-out and setting: to UUAUAGCAAUAUUACGUCAU belongs -2.98 ± 0.37.
Take ACCCAGCAAUAUUACGCCUA: the “self-splicing fitness (ln)” value reads like this: (30 °C) -1.15 ± 0.073; (37 °C) -0.478 ± 0.07.
In the same order, the values of AGGUAGCAAUAUUACGGUAG are -3.883 ± 0.03 and -2.99 ± 0.042.
On to CACAAGCAAUAUUACGCGGU, for which the “self-splicing fitness (ln)” value by setting is: (30 °C) -3.66 ± 0.15; (37 °C) -2.04 ± 0.12.
On to GGUCAGCAAUAUUACGAUAG, for which the “self-splicing fitness (ln)” value (30 °C) is -1.37 ± 0.077 and the “self-splicing fitness (ln)” value (37 °C) came to 0.0315 ± 0.1.
In the same order, the values of GUUAAGCAAUAUUACGGUAU are -1.36 ± 0.11 and -0.895 ± 0.12.
In the same order, the values of UCGAAGCAAUAUUACGCGGC are -3.35 ± 0.32 and -2.87 ± 0.36.
Regarding GACAAGCAAUAUUACGCCAG, for the setting “30 °C”, the “self-splicing fitness (ln)” value is -3.1 ± 0.3.
As for UAGCAGCAAUAUUACGCCCU, the “self-splicing fitness (ln)” value is -0.738 ± 0.087 (30 °C) and -0.863 ± 0.11 (37 °C).
Consider UACUAGCAAUAUUACGUUCG, for which the “self-splicing fitness (ln)” value (30 °C) is -0.992 ± 0.077 and the “self-splicing fitness (ln)” value (37 °C) was -0.484 ± 0.094.
Consider UGUCAGCAAUAUUACGCACA, for which the “self-splicing fitness (ln)” value (30 °C) was -0.467 ± 0.083 and the “self-splicing fitness (ln)” value (37 °C) was -0.355 ± 0.093.
On to AAAGAGCAAUAUUACGGUAA, for which the “self-splicing fitness (ln)” value (30 °C) was -1.74 ± 0.3 and the “self-splicing fitness (ln)” value (37 °C) was -1.67 ± 0.26.
On to AGGCAGCAAUAUUACGGAAC, for which the “self-splicing fitness (ln)” value reads like this: (30 °C) -4.21 ± 0.47; (37 °C) -2.29 ± 0.36.
For the sequence GCUUAGCAAUAUUACGGGCG, the “self-splicing fitness (ln)” value was -1.44 ± 0.082 (30 °C) and -0.621 ± 0.098 (37 °C).
Take GUAAAGCAAUAUUACGCUGA: the “self-splicing fitness (ln)” value is -1.4 ± 0.072 (30 °C) and -0.903 ± 0.099 (37 °C).
With UGAGAGCAAUAUUACGUGCG, the “self-splicing fitness (ln)” value is, setting by setting: (30 °C) -1.95 ± 0.13; (37 °C) -1.42 ± 0.15.
Take ACGAAGCAAUAUUACGCUGC: the “self-splicing fitness (ln)” value (30 °C) is -3.95 ± 0.25 and the “self-splicing fitness (ln)” value (37 °C) was -1.35 ± 0.18.
With UGGCAGCAAUAUUACGCAUA, the “self-splicing fitness (ln)” value was -0.869 ± 0.096 (30 °C) and -0.265 ± 0.1 (37 °C).
With CGGGAGCAAUAUUACGCGUC, the “self-splicing fitness (ln)” value was -2.87 ± 0.22 (30 °C) and -2.8 ± 0.27 (37 °C).
GCCUAGCAAUAUUACGAAGU: the “self-splicing fitness (ln)” value was -0.618 ± 0.1 (30 °C) and -0.808 ± 0.12 (37 °C).
On to GGGAAGCAAUAUUACGCGGG, for which the “self-splicing fitness (ln)” value by setting is: (30 °C) -1.49 ± 0.23; (37 °C) -1.8 ± 0.25.
On to GAAGAGCAAUAUUACGCCAG, for which the “self-splicing fitness (ln)” value (37 °C) was -0.627 ± 0.38.
CGUGAGCAAUAUUACGCACU: the “self-splicing fitness (ln)” value by setting is: (30 °C) -0.892 ± 0.13; (37 °C) -0.687 ± 0.13.
With CCAUAGCAAUAUUACGUAAC, the “self-splicing fitness (ln)” value (37 °C) is -2.7 ± 0.29.
Turning to CAUCAGCAAUAUUACGCGAG, the “self-splicing fitness (ln)” value by setting is: (30 °C) 0.128 ± 0.083; (37 °C) -0.05 ± 0.1.
Turning to CCUUAGCAAUAUUACGGACU, the “self-splicing fitness (ln)” value (30 °C) was -2.41 ± 0.19 and the “self-splicing fitness (ln)” value (37 °C) is -2.89 ± 0.43.
With AGGGAGCAAUAUUACGCAAU, the “self-splicing fitness (ln)” value (37 °C) was -1.7 ± 0.47.
On to GCGAAGCAAUAUUACGCCGA, for which, where the note is “37 °C”, the “self-splicing fitness (ln)” value is -1.78 ± 0.35.
Regarding AAGUAGCAAUAUUACGCCCA, the “self-splicing fitness (ln)” value was -1.95 ± 0.35 (30 °C) and 0.232 ± 0.38 (37 °C).
In the same order, the values of UGCAAGCAAUAUUACGAGCG are -2.37 ± 0.092 and -0.896 ± 0.1.
In the same order, the values of AAGAAGCAAUAUUACGUGCU are -2.37 ± 0.087 and -1.3 ± 0.082.
Turning to UGCCAGCAAUAUUACGAAAC, the “self-splicing fitness (ln)” value (37 °C) was -2.42 ± 0.23.
With UAGUAGCAAUAUUACGCAGG, the “self-splicing fitness (ln)” value by setting is: (30 °C) -2.8 ± 0.22; (37 °C) -1.74 ± 0.23.
In the same order, the values of CGGAAGCAAUAUUACGAUUC are -3.95 ± 0.43 and -2.28 ± 0.45.

Values taken from the supplement of paper PMC7877785.
